Read-outs that look alike come from different tables or passages of the source.

From paper PMC8081665, “Structural and biochemical mechanisms of NLRP1 inhibition by DPP9” (Nature, 2021) come the findings set out here.

Data set [1] has as its target rat DPP9 (rat). Kind of data set: cryo-EM structure; purified complex after gel filtration, about 0.3 mg/ml in 25 mM Tris-HCl pH 8.0, 150 mM NaCl, 3 mM DTT; Titan Krios 300 kV.
Data set [2] deals with GST–rNLRP1 FIIND(S969A) (rat) (UniProt D9I2G3). Kind of data set: SEC; Superose 6 10/30, 10 mM Tris pH 8.0, 100 mM NaCl; purified GST–rNLRP1 FIIND(S969A)–rDPP9 complex incubated with fully processed rNLRP1 FIIND at a molar ratio of about 1:1 at 4 °C for 150 min. On the technique in general: SEC sorts molecules by how far they enter the pores of the column.
Data set [3] concerns the target T1, UPA subdomain of the autocleaved rNLRP1 FIIND (rat, UniProt D9I2G3 969-1122).
T1 construct: rat NLRP1, from S969, the residue after the autocleavage site, to the end of the FIIND construct (1122); source: sf21 insect cells, purified; product of the autocleavage of rNLRP1 FIIND (822-1122)
T1 sequence (looked up): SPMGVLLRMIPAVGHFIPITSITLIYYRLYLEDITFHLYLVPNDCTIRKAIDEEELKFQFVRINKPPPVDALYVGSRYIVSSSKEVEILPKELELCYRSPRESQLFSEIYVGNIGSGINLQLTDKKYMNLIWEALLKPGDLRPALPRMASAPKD
Briefly: crystal structure; rNLRP1 FIIND at 8 mg/ml, hanging drop at 18 °C, 1.0 M ammonium sulfate, 0.1 M Bis-Tris pH 5.5, 1% PEG 3,350. The settings on record: both partners purified.

The target in data set [4] is rat DPP9 (rat). Kind of data set: cryo-EM structure; purified complex after gel filtration, about 0.3 mg/ml in 25 mM Tris-HCl pH 8.0, 150 mM NaCl, 3 mM DTT; Titan Krios 300 kV. The source holds these as a separate data set.
Target sequence in this assay (Q8BVG4 other isoform, or with tags, fused parts or gaps): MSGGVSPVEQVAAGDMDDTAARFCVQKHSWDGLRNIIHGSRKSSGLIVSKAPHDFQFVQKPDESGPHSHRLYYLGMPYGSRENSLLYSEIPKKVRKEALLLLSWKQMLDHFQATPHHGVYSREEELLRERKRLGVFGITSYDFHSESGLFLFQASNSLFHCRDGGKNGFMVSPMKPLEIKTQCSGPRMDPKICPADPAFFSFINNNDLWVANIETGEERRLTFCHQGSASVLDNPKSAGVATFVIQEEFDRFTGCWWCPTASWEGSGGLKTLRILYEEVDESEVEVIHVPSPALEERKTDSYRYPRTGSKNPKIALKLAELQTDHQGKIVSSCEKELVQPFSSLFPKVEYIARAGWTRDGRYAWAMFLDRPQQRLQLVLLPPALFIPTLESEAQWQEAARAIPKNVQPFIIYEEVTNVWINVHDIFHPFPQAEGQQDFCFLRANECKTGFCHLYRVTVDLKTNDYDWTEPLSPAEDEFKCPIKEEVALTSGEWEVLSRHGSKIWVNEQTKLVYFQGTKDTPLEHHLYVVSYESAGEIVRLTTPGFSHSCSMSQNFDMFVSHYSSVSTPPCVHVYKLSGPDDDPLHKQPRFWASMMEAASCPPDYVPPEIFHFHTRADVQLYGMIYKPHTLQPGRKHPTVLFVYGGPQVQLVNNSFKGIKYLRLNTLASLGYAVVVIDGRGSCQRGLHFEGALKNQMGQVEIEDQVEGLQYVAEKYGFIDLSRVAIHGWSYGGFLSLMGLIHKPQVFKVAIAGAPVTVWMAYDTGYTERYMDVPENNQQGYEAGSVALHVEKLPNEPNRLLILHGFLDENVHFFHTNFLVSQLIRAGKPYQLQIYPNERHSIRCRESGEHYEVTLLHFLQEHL
Data set [5] concerns the molecule itself. The data set is described as above.

Usually stoichiometry N stands for a count of units in the complex or per binding partner. As to rat DPP9 (enzyme), the stoichiometry N came out at 2 with rat DPP9 (rat) [1] and 1 in data set [2].

B1: ZU5 subdomain of the autocleaved rNLRP1 FIIND (domain or fragment, rat, UniProt D9I2G3 822-968, looked up)
chain: GDKHMEPLGTDDDFWGPSGPVSTEVVDRERNLYRVRLPMAGSYHCPSTGLHFVVTRAVTIEIGFCAWSQFLHETPLQHSHMVAGPLFDIKAEHGAVTAVCLPHFVSLQEGKVDSSLFHVAHFQDHGMVLETPARVEPHFAVLENPSF
notes: rat NLRP1, from the start of the FIIND construct (822) to F968, the residue before the autocleavage site; source: sf21 insect cells, purified; product of the autocleavage of rNLRP1 FIIND (822-1122); not shown: GST, N-terminal, cleaved
In the case of B1, the binding result in data set [3] was “binds”.

B2: rNLRP1 FIIND–CARD(S969A) (domain or fragment)
chain: GDKHMEPLGTDDDFWGPSGPVSTEVVDRERNLYRVRLPMAGSYHCPSTGLHFVVTRAVTIEIGFCAWSQFLHETPLQHSHMVAGPLFDIKAEHGAVTAVCLPHFVSLQEGKVDSSLFHVAHFQDHGMVLETPARVEPHFAVLENPSFAPMGVLLRMIPAVGHFIPITSITLIYYRLYLEDITFHLYLVPNDCTIRKAIDEEELKFQFVRINKPPPVDALYVGSRYIVSSSKEVEILPKELELCYRSPRESQLFSEIYVGNIGSGINLQLTDKKYMNLIWEALLKPGDLRPALPRMASAPKDAPALLHFVDQHREQLVARVTSVDPLLDKLHGLVLSEEDYETVRAEATNQDKMRKLFRGSRSWSWDCKDHFYQALKETHPHLIMDLLEKSGGVSVRL
As to B2, in the data set with rat DPP9 (rat) [4], the stoichiometry N came out at 1.

B3: full-length rat NLRP1 (natural protein, UniProt D9I2G3 1-1218, looked up)
chain: MEESQSKQESNTRVAQHGSQQDVDPTFQTKRALEKERSKPRPRPLPRVQLQSLPGWSSTSKDVPLSQLIREMDHESRRCIHRSKKKLDRSEHISQGTIPEIYEKRKETISHTQSMEQKYLFQNFTKLLLLQKCCPGGSEKLVRESWHPCVPEEGGHMIEIQDLFDPNLDTEKKPQLVIIEGAAGIGKSTLARQVKRAWDEGQLYRDRFQHVFFFSCRELAQCKQLSLAELIAQGQEVPTAPTRQILSRPEKLLFILDGIDEPAWVLEDQNPELCVHWSQAQPVHTLLGSLLGKSILPEASLMLTARTTALQKLVPSLGQPHRVEVLGFSEFERKDYFYKYFAKERNTIIDFNLIGSIPVLLTLCEVPWVCWLLCTCLEKQMQQGEVLSLTSQTTTALCLKYLSLTIPGQHLSTQLRTLCSLAAEGICQRRTLFSKSDLCKQGLAEDAIATFLKIGVLQRQPSSLSYSFAHLCLQEFFAAMSYILEDSEEAHGDMGNDRTVETLVERYGRQNLFEAPTVRFLLGLLNTREMREMENIFACKFPWETKLKLLQSIIGEPFCQPCHLGLFHCLYENQEEELLTETMLCFPLTASGPNHMEATVFQTNVKRLVIQTDMELMVVTFCITFSHVRSLRLKGKGQQEYKLTAPAMVLYRWTPISEASWKVLFSNLKCTRNLEELDLSGNPLSYSAVRSLCTALRQPGCRLKTLWLVDCGLTSRCCSFLASMLSAHSRLAELDLRLNDLGDNGVRQLCEGLRNPACNLSILRLDQASLSEQVITELRALETKNPKLFISSTWMSHMTMPTENTDGEESLTSSKQQQQQSGDKHMEPLGTDDDFWGPSGPVSTEVVDRERNLYRVRLPMAGSYHCPSTGLHFVVTRAVTIEIGFCAWSQFLHETPLQHSHMVAGPLFDIKAEHGAVTAVCLPHFVSLQEGKVDSSLFHVAHFQDHGMVLETPARVEPHFAVLENPSFSPMGVLLRMIPAVGHFIPITSITLIYYRLYLEDITFHLYLVPNDCTIRKAIDEEELKFQFVRINKPPPVDALYVGSRYIVSSSKEVEILPKELELCYRSPRESQLFSEIYVGNIGSGINLQLTDKKYMNLIWEALLKPGDLRPALPRMASAPKDAPALLHFVDQHREQLVARVTSVDPLLDKLHGLVLSEEDYETVRAEATNQDKMRKLFRGSRSWSWDCKDHFYQALKETHPHLIMDLLEKSGGVSVRL
notes: rat NLRP1, residues 1-1218, gene synthesized from GenBank HM060632.1; Autocleaves in the FIIND between F968 and S969; of the second copy only UPA is seen, and the abstract calls it a UPA-CARD fragment; also called rNLRP1; full-length rNLRP1; source: sf21 insect cells (baculovirus), co-expressed with rDPP9, purified (GS4B, PreScission, gel filtration); not shown: GST, N-terminal, cleaved
Take B3: the stoichiometry N in the data set with rat DPP9 (rat) [4] was 2. Besides, the binding result in data set [5] was “binds”.
